US20170129962A1 (Hoffmann-La Roche, published 2017)

T1: TWEAK (human, UniProt O43508 94-249, limits assumed)
T1 construct: The method paragraph says only 'TWEAK'; also called human TWEAK; TNF-related weak inducer of apoptosis
T1 sequence (looked up): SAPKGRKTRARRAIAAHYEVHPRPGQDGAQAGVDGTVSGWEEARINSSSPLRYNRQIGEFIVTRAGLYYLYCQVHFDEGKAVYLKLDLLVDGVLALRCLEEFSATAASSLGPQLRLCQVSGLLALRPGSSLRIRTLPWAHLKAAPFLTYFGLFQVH

T2: human IL17 (human, UniProt Q16552 24-155)
T2 construct: for that reason an apparent KD is reported; also called IL17-A
T2 sequence (looked up): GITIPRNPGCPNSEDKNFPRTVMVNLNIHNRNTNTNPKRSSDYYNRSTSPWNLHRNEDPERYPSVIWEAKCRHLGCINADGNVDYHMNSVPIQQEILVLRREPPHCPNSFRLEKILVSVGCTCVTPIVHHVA


Experiments:
TWEAK = target: T1, TWEAK; test: SPR (Biacore), TWEAK amine-coupled on C1 chip, bispecific antibody as analyte, 1:1 Langmuir
Description: Around 100 RU of TWEAK was immobilized on the C1 chip surface at pH 5.0 using an amine coupling kit supplied by the GE Healthcare. The sample and system buffer was PBS-T (10 mM phosphate buffered saline including 0.05% Tween 20) pH 7.4. Association was measured by injection the bispecific antibody in various concentrations in solution for 3 min at a flow of 30 μl/min starting with 50 nM in 1:1 serial dilutions. The dissociation phase was monitored for up to 10 min and triggered by switching from the sample solution to running buffer. The surface was regenerated three times by 30 sec wash with a 3 M MgCl2 solution at a flow rate of 30 μl/min. Bulk refractive index differences were corrected by subtracting the response obtained from a blank-coupled surface. Blank injections are also subtracted (=double referencing). For calculation of KD and other kinetic parameters, the Langmuir 1:1 model was used.
(§1) Binding of the multispecific antibodies to their respective target antigens, i.e. IL17 and TWEAK, was assessed by Biacore® as described in the general methods section.

human IL17 [1] = target: T2, human IL17; test: SPR (Biacore), bispecific antibody captured by anti-human F(ab')2, human IL17 as analyte, 1:1 Langmuir
Description: (§2) Around 6000 resonance units (RU) of the capturing system (15 μg/ml goat anti human F(ab′)2; Order Code: 28958325; GE Healthcare Bio-Sciences AB, Schweden) were coupled on a CMS chip at pH 5.0 by using an amine coupling kit supplied by the GE Healthcare. The sample and system buffer was PBS-T (10 mM phosphate buffered saline including 0.05% Tween 20) pH 7.4. The bispecific antibody was captured by injecting a 50 nM solution for 90 sec at a flow of 10 μl/min. Association was measured by injection human IL17 in various concentrations in solution for 3 min at a flow of 30 μl/min starting with 50 nM in 1:1 serial dilutions. The dissociation phase was monitored for up to 10 min and triggered by switching from the sample solution to running buffer. The surface was regenerated twice by 60 sec wash with a 10 mM glycine pH 2.1 solution at a flow rate of 30 μl/min. Bulk refractive index differences were corrected by subtracting the response obtained from a goat anti human F(ab′)2 surface. Blank injections are also subtracted (=double referencing). For calculation of apparent KD and other kinetic parameters, the Langmuir 1:1 model was used.
as §1

human IL17 [2] = target: T2, human IL17; test: SPR (Biacore), bispecific antibody captured by anti-human F(ab')2, human IL17 as analyte, 1:1 Langmuir, apparent KD
Description: as §2, §1

Row | Binder | Kd (TWEAK) [nM] | koff (TWEAK) [s⁻¹] | kon (TWEAK) [M⁻¹ s⁻¹] | koff (human IL17 [1]) [s⁻¹] | kon (human IL17 [1]) [M⁻¹ s⁻¹] | Kd (human IL17 [2]) [nM]
1 | TweakIL17-0129 (bispecific antibody, human IgG4 S228P, kappa, CrossMAb CH1-CL, knob-into-hole with S354C/Y349C) light 1: DIVMTQSPLSLPVTPGEPASISCRSSQSLVHSNGDTYFHWYLQKPGQSPQLLIYKVSNRFSGVPDRFSGSGSGTDFTLKISRVEAEDVGVYYCSQTTHAPFTFGQGTKLEIKRTVAAPSVFIFPPSDEKLKSGTASVVCLLNNFYPREAKVQWKVDNALQSGNSQESVTEQDSKDSTYSLSSTLTLSKADYEKHKVYACEVTHQGLSSPVTKSFNRGEC heavy 1: EVQLVESGGGLVQPGGSLRLSCAASGFSLDSYGVHWVRQATGKGLEWVSVIWSDGTTTYNSALKSRFTISRENAKNSLYLQMNSLRAGDTAVYYCARDTHYRLYYYAMDYWGQGTTVTVSSASTKGPSVFPLAPCSRSTSESTAALGCLVEDYFPEPVTVSWNSGALTSGVHTFPAVLQSSGLYSLSSVVTVPSSSLGTKTYTCNVDHKPSNTKVDKRVESKYGPPCPPCPAPEFEGGPSVFLFPPKPKDTLMISRTPEVTCVVVDVSQEDPEVQFNWYVDGVEVHNAKTKPREEQFNSTYRVVSVLTVLHQDWLNGKEYKCKVSNKGLPSSIEKTISKAKGQPREPQVCTLPPSQEEMTKNQVSLSCAVKGFYPSDIAVEWESNGQPENNYKTTPPVLDSDGSFFLVSRLTVDKSRWQEGNVFSCSVMHEALHNHYTQKSLSLSLGK light 2: DIQMTQSPSSVSASVGDRVTITCQASQNIYSNLAWYQQKPGKAPKLLIYTASYLASGVPSRFSGSGSGTDYTLTISSLQPEDFATYYCQTAYYNSRPDTVAFGGGTKVEIKSSASTKGPSVFPLAPCSRSTSESTAALGCLVKDYFPEPVTVSWNSGALTSGVHTFPAVLQSSGLYSLSSVVTVPSSSLGTKTYTCNVDHKPSNTKVDKRVESKYG heavy 2: QVQLVQSGAEVKKPGSSVKVSCKASGFDFSTYYMSWVRQAPGQGLEWMGTVYVRQGTTYYASWLNGRVTITADESTSTAYMELSSLRSEDTAVYYCARGGYNYDDAFVIWGQGTLVTVSSASVAAPSVFIFPPSDEQLKSGTASVVCLLNNFYPREAKVQWKVDNALQSGNSQESVTEQDSKDSTYSLSSTLTLSKADYEKHKVYACEVTHQGLSSPVTKSFNRGECPPCPPCPAPEFEGGPSVFLFPPKPKDTLMISRTPEVTCVVVDVSQEDPEVQFNWYVDGVEVHNAKTKPREEQFNSTYRVVSVLTVLHQDWLNGKEYKCKVSNKGLPSSIEKTISKAKGQPREPQVYTLPPCQEEMTKNQVSLWCLVKGFYPSDIAVEWESNGQPENNYKTTPPVLDSDGSFFLYSRLTVDKSRWQEGNVFSCSVMHEALHNHYTQKSLSLSLGK | < 0.1 | 2.64e-05 | 707000 | 0.000204 | 1.09e+07 | < 0.1
2 | TweakIL17-0130 (bispecific antibody, human IgG4 S228P, kappa, CrossMAb CH1-CL, knob-into-hole with S354C/Y349C) light 1: DIVMTQSPLSLPVTPGEPASISCRSSQSLVHSNGDTYFHWYLQKPGQSPQLLIYKVSNRFSGVPDRFSGSGSGTDFTLKISRVEAEDVGVYYCSQTTHAPFTFGQGTKLEIKRTVAAPSVFIFPPSDKQLKSGTASVVCLLNNFYPREAKVQWKVDNALQSGNSQESVTEQDSKDSTYSLSSTLTLSKADYEKHKVYACEVTHQGLSSPVTKSFNRGEC heavy 1: EVQLVESGGGLVQPGGSLRLSCAASGFSLDSYGVHWVRQATGKGLEWVSVIWSDGTTTYNSALKSRFTISRENAKNSLYLQMNSLRAGDTAVYYCARDTHYRLYYYAMDYWGQGTTVTVSSASTKGPSVFPLAPCSRSTSESTAALGCLVKDYFPEPVTVSWNSGALTSGVHTFPAVLQSSGLYSLSSVVTVPSSSLGTKTYTCNVDHKPSNTKVDERVESKYGPPCPPCPAPEFEGGPSVFLFPPKPKDTLMISRTPEVTCVVVDVSQEDPEVQFNWYVDGVEVHNAKTKPREEQFNSTYRVVSVLTVLHQDWLNGKEYKCKVSNKGLPSSIEKTISKAKGQPREPQVCTLPPSQEEMTKNQVSLSCAVKGFYPSDIAVEWESNGQPENNYKTTPPVLDSDGSFFLVSRLTVDKSRWQEGNVFSCSVMHEALHNHYTQKSLSLSLGK light 2: DIQMTQSPSSVSASVGDRVTITCQASQNIYSNLAWYQQKPGKAPKLLIYTASYLASGVPSRFSGSGSGTDYTLTISSLQPEDFATYYCQTAYYNSRPDTVAFGGGTKVEIKSSASTKGPSVFPLAPCSRSTSESTAALGCLVKDYFPEPVTVSWNSGALTSGVHTFPAVLQSSGLYSLSSVVTVPSSSLGTKTYTCNVDHKPSNTKVDKRVESKYG heavy 2: QVQLVQSGAEVKKPGSSVKVSCKASGFDFSTYYMSWVRQAPGQGLEWMGTVYVRQGTTYYASWLNGRVTITADESTSTAYMELSSLRSEDTAVYYCARGGYNYDDAFVIWGQGTLVTVSSASVAAPSVFIFPPSDEQLKSGTASVVCLLNNFYPREAKVQWKVDNALQSGNSQESVTEQDSKDSTYSLSSTLTLSKADYEKHKVYACEVTHQGLSSPVTKSFNRGECPPCPPCPAPEFEGGPSVFLFPPKPKDTLMISRTPEVTCVVVDVSQEDPEVQFNWYVDGVEVHNAKTKPREEQFNSTYRVVSVLTVLHQDWLNGKEYKCKVSNKGLPSSIEKTISKAKGQPREPQVYTLPPCQEEMTKNQVSLWCLVKGFYPSDIAVEWESNGQPENNYKTTPPVLDSDGSFFLYSRLTVDKSRWQEGNVFSCSVMHEALHNHYTQKSLSLSLGK | < 0.1 | 2.83e-05 | 859000 | 0.000194 | 1.04e+07 | < 0.1
3 | TweakIL17-0049 (bispecific antibody, human IgG4 S228P, kappa, also called TweakIL17-0049 (control)) light 1: DIVMTQSPLSLPVTPGEPASISCRSSQSLVHSNGDTYFHWYLQKPGQSPQLLIYKVSNRFSGVPDRFSGSGSGTDFTLKISRVEAEDVGVYYCSQTTHAPFTFGQGTKLEIKRTVAAPSVFIFPPSDEQLKSGTASVVCLLNNFYPREAKVQWKVDNALQSGNSQESVTEQDSKDSTYSLSSTLTLSKADYEKHKVYACEVTHQGLSSPVTKSFNRGEC heavy 1: EVQLVESGGGLVQPGGSLRLSCAASGFSLDSYGVHWVRQATGKGLEWVSVIWSDGTTTYNSALKSRFTISRENAKNSLYLQMNSLRAGDTAVYYCARDTHYRLYYYAMDYWGQGTTVTVSSASTKGPSVFPLAPCSRSTSESTAALGCLVKDYFPEPVTVSWNSGALTSGVHTFPAVLQSSGLYSLSSVVTVPSSSLGTKTYTCNVDHKPSNTKVDKRVESKYGPPCPPCPAPEFEGGPSVFLFPPKPKDTLMISRTPEVTCVVVDVSQEDPEVQFNWYVDGVEVHNAKTKPREEQFNSTYRVVSVLTVLHQDWLNGKEYKCKVSNKGLPSSIEKTISKAKGQPREPQVCTLPPSQEEMTKNQVSLSCAVKGFYPSDIAVEWESNGQPENNYKTTPPVLDSDGSFFLVSRLTVDKSRWQEGNVFSCSVMHEALHNHYTQKSLSLSLGK light 2: DIQMTQSPSSVSASVGDRVTITCQASQNIYSNLAWYQQKPGKAPKLLIYTASYLASGVPSRFSGSGSGTDYTLTISSLQPEDFATYYCQTAYYNSRPDTVAFGGGTKVEIKSSASTKGPSVFPLAPCSRSTSESTAALGCLVKDYFPEPVTVSWNSGALTSGVHTFPAVLQSSGLYSLSSVVTVPSSSLGTKTYTCNVDHKPSNTKVDKRVESKYG heavy 2: QVQLVQSGAEVKKPGSSVKVSCKASGFDFSTYYMSWVRQAPGQGLEWMGTVYVRQGTTYYASWLNGRVTITADESTSTAYMELSSLRSEDTAVYYCARGGYNYDDAFVIWGQGTLVTVSSASVAAPSVFIFPPSDEQLKSGTASVVCLLNNFYPREAKVQWKVDNALQSGNSQESVTEQDSKDSTYSLSSTLTLSKADYEKHKVYACEVTHQGLSSPVTKSFNRGECPPCPPCPAPEFEGGPSVFLFPPKPKDTLMISRTPEVTCVVVDVSQEDPEVQFNWYVDGVEVHNAKTKPREEQFNSTYRVVSVLTVLHQDWLNGKEYKCKVSNKGLPSSIEKTISKAKGQPREPQVYTLPPCQEEMTKNQVSLWCLVKGFYPSDIAVEWESNGQPENNYKTTPPVLDSDGSFFLYSRLTVDKSRWQEGNVFSCSVMHEALHNHYTQKSLSLSLGK | < 0.1 | 4.82e-05 | 1.27e+06 | 0.000123 | 1.34e+06 | < 0.1
